The chains are these.
B1: hz13-5 (antibody, IgG1, V domains shown)
VH: EVLLVQSGAEVKKPGASVKLSCTSSDFNIKDHFIHWVRQAPGKGLEWMGRIDPEDDETKYAPKFQDRVTMTADTSTDTAYMELSSLRSEDTAVFYCAGYGNYEGAMDYWGQGTLVTVSS
VL: DIQMTQSPSSLSASVGDRVTITCRASENVNNYGIGFMNWFQQKPGKAPKLLIYAASRRGSGVPSRFSGSGSGTDFTLTISSLQPEDFATYFCQQSKEVPYTFGQGTKVEIK
notes: also called clone 13-based hz13-5 antibody; parent hz13-5
B2: hz13-8 (antibody, V domains shown)
VH: B1 VH with M48I, M70I, M81L
VL: B1 VL
notes: light constant region not tied to this antibody
B3: hz13-4 (antibody, V domains shown)
VH: B1 VH
VL: B1 VL with F40Y, F91Y
notes: as for B2
B4: hz13-6 (antibody, V domains shown)
VH: B1 VH
VL: B1 VL with Q3V, I21L, L82M, V108L
notes: as for B2
B5: hz13-7 (antibody, V domains shown)
VH: B1 VH with M48I, M70I, M81L
VL: B1 VL with F40Y, F91Y
notes: as for B2
B6: hz13-3 (antibody, V domains shown)
VH: B1 VH with L3Q, L20V, F94Y
VL: B1 VL with Q3V, I21L, L82M, V108L
notes: as for B2
B7: hz13-9 (antibody, V domains shown)
VH: B1 VH with M48I, M70I, M81L
VL: B1 VL with Q3V, I21L, L82M, V108L
notes: as for B2
B8: hz13-1 (antibody, V domains shown)
VH: B1 VH with L3Q, L20V, F94Y
VL: B1 VL with F40Y, F91Y
notes: as for B2
B9: hz13-2 (antibody, V domains shown)
VH: B1 VH with L3Q, L20V, F94Y
VL: B1 VL
notes: as for B2
B10: hz20-2 (antibody, IgG1, V domains shown)
VH: QVQLVQSGAEVKKPGASVKVSCKASGYTFTNYGISWVRQAPGQGLEWMGEIYPRSGNTYHNEKFKDRVTMTTDTSTSTAYMELRSLRSDDTAVYYCARSMITTRYWYFDVWGQGTLVTVSS
VL: DIQMTQSPSSLSASVGDRVTITCRASESVDTYGNSFMHWYQQKPGKAPKLLIYLASNLESGVPSRFSGSGSGTDFTLTISSLQPEDFATYYCQQNNEDPLTFGQGTKVEIK
notes: also called clone 20-based hz20-2 antibody
B11: hz20-6 (antibody, V domains shown)
VH: B10 VH with V20L, S25T, M48I, M70L, T72A, T74K, T76S, L83F, Y95F
VL: B10 VL
notes: as for B2
B12: hz13-5 D31E (antibody, V domains shown)
VH: B1 VH with D31E
VL: DIQMTQSPSSLSASVGDRVTITCRASENVNNYGIGFMNWFQQKPGKAPKLLIYAASRRGSGVPSRFSGSGSGTDFTLTISSLQPEDFATYFCQQSKEVPYTFGQGTKVEIKR
notes: IgG1.3f; also called clone 13-based hz13-5 D31E

Residue numbers refer to the chain shown, from its start. Names may count otherwise.

The target in the first test is T1, recombinant human PAD4 (human, UniProt Q9UM07 1-663). Description: cell-based or functional assay.
T1 sequence (Q9UM07 whole entry): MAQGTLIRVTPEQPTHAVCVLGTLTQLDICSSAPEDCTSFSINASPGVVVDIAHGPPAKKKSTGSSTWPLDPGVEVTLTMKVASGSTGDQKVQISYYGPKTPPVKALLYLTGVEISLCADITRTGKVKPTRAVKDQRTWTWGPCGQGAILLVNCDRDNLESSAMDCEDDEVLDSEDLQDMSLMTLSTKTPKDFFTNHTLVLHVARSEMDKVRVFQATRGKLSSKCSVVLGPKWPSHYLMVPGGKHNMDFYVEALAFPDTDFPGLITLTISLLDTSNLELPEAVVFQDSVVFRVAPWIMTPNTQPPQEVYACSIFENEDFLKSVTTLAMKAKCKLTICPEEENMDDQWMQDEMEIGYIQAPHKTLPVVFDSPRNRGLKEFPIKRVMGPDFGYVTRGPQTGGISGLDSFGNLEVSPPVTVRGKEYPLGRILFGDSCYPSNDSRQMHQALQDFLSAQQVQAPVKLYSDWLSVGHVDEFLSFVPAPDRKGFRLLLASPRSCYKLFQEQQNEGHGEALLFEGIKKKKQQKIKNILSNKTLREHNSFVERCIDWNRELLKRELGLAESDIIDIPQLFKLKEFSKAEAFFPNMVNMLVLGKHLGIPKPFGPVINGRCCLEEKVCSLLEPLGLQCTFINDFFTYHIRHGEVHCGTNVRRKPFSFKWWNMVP
Turning to B1, the “IC50 (average), PAD4 citrullination of peptide …, RapidFire MS” value (“IC50 (average), PAD4 citrullination” for short) turned out to be 48.2 nM.
On to B2, for which the “IC50 (average), PAD4 citrullination” value was 62.8 nM.
Regarding B3, the “IC50 (average), PAD4 citrullination” value is 115 nM.
In the case of B4, the “IC50 (average), PAD4 citrullination” value came out at 39.1 nM.
As to B5, the “IC50 (average), PAD4 citrullination” value is 170 nM.
Turning to B6, the “IC50 (average), PAD4 citrullination” value worked out at 23.3 nM.
Consider B7, for which the “IC50 (average), PAD4 citrullination” value worked out at 76 nM.
On the same count and under the same terms, in the case of B8 it was 125 nM; in that of B9, 96.4 nM.
Still for that read-out and setting: to B10 belongs 73 nM; to B11, 64 nM.

Another test deals with T1, recombinant human PAD4. The test can be described thus: SPR 37 C, captured antibody, PAD4 analyte, 1 mM CaCl2. Here is the method: Their binding to human PAD4 was measured by Surface Plasmon Resonance (SPR). SPR measurements were performed with a Biacore® 8K, 8K+, or T200 instrument (Cytiva). The association rate constants, kₒₙ, dissociation rate constants, koff, and equilibrium dissociation constants, KD, of the antibodies with PAD4 were determined from these SPR measurements.
(§1) For SPR measurements, either an anti-human capture surface or Protein A surface (Cytiva catalog #29127555) was used. Anti-human capture surface was prepared by immobilizing anti-human capture antibody (Cytiva catalog #29234600) onto flow cells of a CM5 or CM4 biosensor following the manufacturer's amine coupling protocol (Cytiva catalog #BR-1006-33). SPR experiments were conducted at 37° C. using HBS-P (150 mM NaCl, 10 mM HEPES, pH 7.6, 0.05% Tween-20) (TEKNOVA catalog #H8032) with additional 150 mM NaCl and 1 mM or 2 mM CaCl₂) (see Table 2) or 2 mM EDTA (see Table 3) as running buffer. Antibodies were diluted to 1.5 μg/mL in the running buffer, and were captured across active biosensor flow cells at 10 μL/min for 15 to 30 seconds. […] The association and dissociation of the antibodies with PAD4 were measured. One 30 second injection followed by one 15 second injection of 10 mM glycine pH 1.5 was used to regenerate the Protein A capture surface between assay cycles. For anti-human capture surface, two 30 second injections of 3 M MgCl₂ was used for regeneration. SPR measurements for mAb20 and mAb 13 SPR were done in the presence of 2 mM CaCl₂). The remaining antibodies were tested in the presence of 1 mM CaCl₂).
(§2) Rate constants kₒₙ and koff were derived from reference flow cell- and 0 nM blank-subtracted sensorgrams, and were fit to a 1:1 binding model in Biacore® Insight Evaluation software version 3.0.12.15655. Deviations from 1:1 binding model were observed, which may be caused by increased dimerization of PAD4 at higher concentrations. The equilibrium dissociation constant, KD, was calculated as the ratio of rate constants koff/kₒₙ for each PAD4 antibody.
Regarding B1, the dissociation constant Kd worked out at 0.1 nM, the off-rate (koff) turned out to be 0.00012 s⁻¹ and the association rate constant (kon) amounted to 1.6e+06 M⁻¹ s⁻¹.
B12: the Kd was found to be 0.147 nM, the koff stood at 0.000171 s⁻¹ and the kon turned out to be 1.32e+06 M⁻¹ s⁻¹.
Regarding B2, the dissociation constant Kd amounted to 0.1 nM, the koff amounted to 0.00014 s⁻¹ and the on-rate (kon) was 1.7e+06 M⁻¹ s⁻¹.
Turning to B3, the Kd was 0.1 nM, the koff was 0.00013 s⁻¹ and the on-rate (kon) is 930000 M⁻¹ s⁻¹.
Turning to B4, the dissociation constant (Kd) is 0.1 nM, the koff turned out to be 0.00012 s⁻¹ and the kon stood at 1.6e+06 M⁻¹ s⁻¹.
Take B5: the equilibrium dissociation constant (Kd) was found to be 0.1 nM, the dissociation rate constant (koff) stood at 0.00015 s⁻¹ and the kon came out at 1.2e+06 M⁻¹ s⁻¹.
On to B6, for which the Kd came to 0.1 nM, the off-rate constant (koff) was found to be 0.00013 s⁻¹ and the kon worked out at 1.5e+06 M⁻¹ s⁻¹.
Consider B7, for which the dissociation constant Kd stood at 0.1 nM, the koff came to 0.00016 s⁻¹ and the on-rate constant (kon) came out at 2e+06 M⁻¹ s⁻¹.
On the same counts, the results for B8 are 0.2 nM, 0.00015 s⁻¹ and 880000 M⁻¹ s⁻¹.
As for B9, the dissociation constant (Kd) was determined as 0.1 nM, the koff was 0.00012 s⁻¹ and the kon amounted to 1.7e+06 M⁻¹ s⁻¹.
On the same counts, the results for B10 are 1.1 nM, 0.00029 s⁻¹ and 290000 M⁻¹ s⁻¹.
In the case of B11, the dissociation constant Kd is 0.6 nM, the off-rate (koff) was found to be 0.00025 s⁻¹ and the kon is 390000 M⁻¹ s⁻¹.

The target of another test is T1, recombinant human PAD4. Description: SPR 37 C, captured antibody, PAD4 analyte, 2 mM EDTA. Here is the method: as §1
as §2, with “antibody. For those antibodies that were tested in multiple SPR experiments, the average value and standard deviation from two or three separate experiments are listed in Tables 2 and 3.” for “antibody.”
In the case of B1, the Kd turned out to be 0.1 nM, the koff came out at 0.00021 s⁻¹ and the association rate constant (kon) turned out to be 2.1e+06 M⁻¹ s⁻¹.
B12: the Kd was found to be 0.306 nM, the koff amounted to 0.000358 s⁻¹ and the on-rate constant (kon) was 1.17e+06 M⁻¹ s⁻¹.
On the same counts, the results for B2 are 0.1 nM, 0.00016 s⁻¹ and 1.9e+06 M⁻¹ s⁻¹.
For the molecule B3, the Kd was found to be 0.2 nM, the off-rate constant (koff) was found to be 0.00032 s⁻¹ and the kon worked out at 1.4e+06 M⁻¹ s⁻¹.
On the same counts, the results for B4 are 0.1 nM, 0.00023 s⁻¹ and 1.7e+06 M⁻¹ s⁻¹.
In the case of B5, the dissociation constant Kd amounted to 0.1 nM, the off-rate (koff) came out at 0.00025 s⁻¹ and the kon was 2e+06 M⁻¹ s⁻¹.
Turning to B6, the Kd came out at 0.1 nM, the koff turned out to be 0.00021 s⁻¹ and the kon was 1.9e+06 M⁻¹ s⁻¹.
On the same counts, the results for B7 are 0.1 nM, 0.00019 s⁻¹ and 2e+06 M⁻¹ s⁻¹.
On the same counts, the results for B8 are 0.3 nM, 0.0004 s⁻¹ and 1.3e+06 M⁻¹ s⁻¹.
On the same counts, the results for B9 are 0.1 nM, 0.00025 s⁻¹ and 2e+06 M⁻¹ s⁻¹.
Turning to B10, the Kd came to 1 nM, the off-rate (koff) was found to be 0.00032 s⁻¹ and the on-rate (kon) stood at 310000 M⁻¹ s⁻¹.
Consider B11, for which the dissociation constant (Kd) was 1.2 nM, the koff worked out at 0.00037 s⁻¹ and the kon is 300000 M⁻¹ s⁻¹.

The target in the next test is T1, recombinant human PAD4. Description: cell-based or functional assay. This is another data set of the same source.
In the case of B12, the “IC50 run 1, citrulline ELISA on peptide …, 13.5 nM rhPAD4” value was determined as 0.34 nM; the “IC50 run 1, citrulline ELISA on peptide …, 27 nM rhPAD4” value was determined as 1.77 nM; the “IC50 run 1, citrulline ELISA on peptide …, 54 nM rhPAD4” value amounted to 3.13 nM; the “IC50 run 1, citrulline ELISA on peptide …, 108 nM rhPAD4” value came to 6.03 nM. Also, the “IC50 run 2, citrulline ELISA on peptide …, 13.5 nM rhPAD4” value stood at 0.73 nM; the “IC50 run 2, citrulline ELISA on peptide …, 27 nM rhPAD4” value was found to be 1.26 nM; the “IC50 run 2, citrulline ELISA on peptide …, 54 nM rhPAD4” value is 3.14 nM; the “IC50 run 2, citrulline ELISA on peptide …, 108 nM rhPAD4” value amounted to 4.29 nM. The “IC50 run 3, citrulline ELISA on peptide …, 13.5 nM rhPAD4” value was determined as 0.37 nM; the “IC50 run 3, citrulline ELISA on peptide …, 27 nM rhPAD4” value came out at 0.89 nM; the “IC50 run 3, citrulline ELISA on peptide …, 54 nM rhPAD4” value came to 2.68 nM; the “IC50 run 3, citrulline ELISA on peptide …, 108 nM rhPAD4” value is 4.65 nM.

In a further test the target is T1, recombinant human PAD4. The test can be described thus: cell-based or functional assay. This is another data set of the same source.
On to B1, for which the “IC50, citrulline ELISA on peptide …, 13.5 nM rhPAD4” value is 0.7 nM and the “IC50, citrulline ELISA on peptide …, 108 nM rhPAD4” value was 5.02 nM.
In the case of B12, the “mean IC50, PAD4 driven H3 citrullination (ELISA), 13.5 nM PAD4, with 100 ug/ml purified IgG of NHV sera (n=6)” value is 9 nM and the “mean IC50, PAD4 driven H3 citrullination (ELISA), 13.5 nM PAD4, with 100 ug/ml purified IgG of RA sera (n=21)” value was determined as 8.2 nM.

The target in the next test is extracellular matrix (ECM) proteins. The test can be described thus: ECM plate ELISA (Matrigel), 1 uM antibody, A450 over wells without sample.
On to B1, for which the ECM Score (1 µM) was 1.
Same read-out and setting: in the case of B2 it was 2.
B3 gave an ECM Score (1 µM) of 1.
B4: the ECM Score (1 µM) turned out to be 1.
B5 showed an ECM Score (1 µM) of 1.
Still for that read-out and setting: to B6 belongs 1; to B7, 2; to B8, 1.
Same read-out and setting: in the case of B9 it was 1.
The same measure, in the same setting: to B10 belongs 6; to B11, 16.

Source of the values: patent publication US20240132622A1 (Bristol-Myers Squibb, published 2024).
